# Measured values as given in paper PMC7374754, “Selection of mutant µplasmin for amyloid-β cleavage in vivo” (Scientific Reports, 2020).
# Target: human µPlm P642A (human)
# Assay: cell-based or functional assay
binder,measurement,value
"human alpha-2 antiplasmin (α2-AP), mature (natural protein, UniProt P08697-1 40-491, looked up) NQEQVSPLTLLKLGNQEPGGQTALKSPPGVCSRDPTPEQTHRLARAMMAFTADLFSLVAQTSTCPNLILSPLSVALALSHLALGAQNHTLQRLQQVLHAGSGPCLPHLLSRLCQDLGPGAFRLAARMYLQKGFPIKEDFLEQSEQLFGAKPVSLTGKQEDDLANINQWVKEATEGKIQEFLSGLPEDTVLLLLNAIHFQGFWRNKFDPSLTQRDSFHLDEQFTVPVEMMQARTYPLRWFLLEQPEIQVAHFPFKNNMSFVVLVPTHFEWNVSQVLANLSWDTLHPPLVWERPTKVRLPKLYLKHQMDLVATLSQLGLQELFQAPDLRGISEQSLVVSGVQHQSTLELSEVGVEAAAATSIAMSRMSLSSFSVNRPFLFFIFEDTTGLPLFVGSVRNPNPSAPRELKEQQDSPGNKDFLQSLKGFPRGDKLFGPDLKLVPPMEEDYPQFGSPK","IC50 of α2-AP inhibition of amidolytic activity, fold relative to the wild-type",2 fold of wild type
